This note sets out measurements from publication PMC5286379.

Common to all, as to assay: EMSA
(In general: In EMSA bound probe runs differently from free probe, usually more slowly.)

One test addresses Sox2 HMG (79-aa protein). As to conditions: Sox2-Oct heterodimer on SoxOct DNA element CCATGGACATTGTAATGCAAAAGAAGCTG, n = 3-13, read off a plot.
Another test concerns the target Oct4^151M POU domain. As to conditions: homodimer on MORE (OctOct) DNA element TCCTCATGAATATTCATGAGGA; n = 3-13; parent: est. 7; read off a plot.
In another test the target is Oct6^151S POU domain. Particulars: homodimer on MORE (OctOct) DNA element TCCTCATGAATATTCATGAGGA; n = 3-13; parent: est. 160; read off a plot.

Oct4 POU domain S151M: the other: cooperativity factor in the test with Sox2 HMG (79-aa protein) (parent: est. 12) came to 29; with Oct4^151M POU domain, 140.
For the substance Oct6 POU domain M151S, the other: cooperativity factor with Sox2 HMG (79-aa protein) (parent: est. 4.5) is 2.5; with Oct6^151S POU domain, 4.
